# Test results taken from patent US20250101133A1 (published 2025).
# B1: human NEDP1 (enzyme)
# chain: MDPVVLSYMDSLLRQSDVSLLDPPSWLNDHIIGFAFEYFANSQFHDCSDHVSFISPEVTQFIKCTSNPAEIAMFLEPLDLPNKRVVFLAINDNSNQAAGGTHWSLLVYLQDKNSFFHYDSHSRSNSVHAKQVAEKLEAFLGRKGDKLAFVEEKAPAQQNSYDCGMYVICNTEALCQNFFRQQTESLLQLLTPAYITKKRGEWKDLITTLAKK
# B2: AbR2DP12, purified His6-tagged nanobody (VHH)
# VHH: QVQLQESGGGLVQAGGSLRLSCAASGSTSSFNVMAWYHQAPGKQRESVASITSGGITVYRDSVKGRFAISSDNAKNTVFLQMNSLKPEDTGVYYCGGVVDGRVYRGQGTQVTVSS
# B3: AbR2DP35, purified His6-tagged nanobody (VHH)
# VHH: QVQLQESGGGLVQPGGSLTLSCAASGVMFSTGVMGWYRQAPGKQREAVAAITSGGLTTYKDSVKGRFAISRDNTKSTGYLQMNRLRPEDTAVYYCNVRGYWGQGTQVTVSS
# B4: AbR2DP47, purified His6-tagged nanobody (VHH)
# VHH: QVQLQESGGGLVEPGGSLRLSCAASGSISSINVMAWYRQAPGKQRESVAAISSFGITTYSETVKGRFTASRDNAKNTMYLQMNNLKPEDTAVYYCKGPNTDWGQGTQVTVSS
# B5: AbR2DP46, purified His6-tagged nanobody (VHH)
# VHH: QVQLQESGGGLVQAGGSLRLSCAASGSPFSIGTMAWYRQAPGNQRASVAAITRGGATTYANSVKGRFTVSRDNAKNTVYLQMNSLKPEDTAAYYCSVWAGDRAYWGQGTQVTVSS
# Legend:
# Assay in all cases: SPR
# Nb19 = target: Nb19
# Nb20 = target: Nb20
# Nb6 = target: Nb6
# Nb12 = target: Nb12
# [1] = target: T1, recombinant human NEDP1 protein (human, UniProt Q96LD8 1-212)
# T1 chain: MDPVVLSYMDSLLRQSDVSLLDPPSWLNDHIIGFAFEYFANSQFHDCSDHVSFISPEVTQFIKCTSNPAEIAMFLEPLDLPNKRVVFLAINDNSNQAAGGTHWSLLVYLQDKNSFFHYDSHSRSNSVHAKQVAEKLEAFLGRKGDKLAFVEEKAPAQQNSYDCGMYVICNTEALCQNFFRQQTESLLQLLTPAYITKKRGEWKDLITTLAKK
Binder,Kd [1] [nM],further results
B1,,Kd (Nb19): 0.196 nM; Kd (Nb20): 0.203 nM; Kd (Nb6): < 0.01 nM; Kd (Nb12): 0.33 nM
B2,< 0.01,
B3,< 0.01,
B4,5.39,
B5,6.98,
